These are literature values, as cited in PMC6189303.

The series deals with L1-CAM (UniProt P32004).
Sequence of UniProt P32004 (P32004 20-1120): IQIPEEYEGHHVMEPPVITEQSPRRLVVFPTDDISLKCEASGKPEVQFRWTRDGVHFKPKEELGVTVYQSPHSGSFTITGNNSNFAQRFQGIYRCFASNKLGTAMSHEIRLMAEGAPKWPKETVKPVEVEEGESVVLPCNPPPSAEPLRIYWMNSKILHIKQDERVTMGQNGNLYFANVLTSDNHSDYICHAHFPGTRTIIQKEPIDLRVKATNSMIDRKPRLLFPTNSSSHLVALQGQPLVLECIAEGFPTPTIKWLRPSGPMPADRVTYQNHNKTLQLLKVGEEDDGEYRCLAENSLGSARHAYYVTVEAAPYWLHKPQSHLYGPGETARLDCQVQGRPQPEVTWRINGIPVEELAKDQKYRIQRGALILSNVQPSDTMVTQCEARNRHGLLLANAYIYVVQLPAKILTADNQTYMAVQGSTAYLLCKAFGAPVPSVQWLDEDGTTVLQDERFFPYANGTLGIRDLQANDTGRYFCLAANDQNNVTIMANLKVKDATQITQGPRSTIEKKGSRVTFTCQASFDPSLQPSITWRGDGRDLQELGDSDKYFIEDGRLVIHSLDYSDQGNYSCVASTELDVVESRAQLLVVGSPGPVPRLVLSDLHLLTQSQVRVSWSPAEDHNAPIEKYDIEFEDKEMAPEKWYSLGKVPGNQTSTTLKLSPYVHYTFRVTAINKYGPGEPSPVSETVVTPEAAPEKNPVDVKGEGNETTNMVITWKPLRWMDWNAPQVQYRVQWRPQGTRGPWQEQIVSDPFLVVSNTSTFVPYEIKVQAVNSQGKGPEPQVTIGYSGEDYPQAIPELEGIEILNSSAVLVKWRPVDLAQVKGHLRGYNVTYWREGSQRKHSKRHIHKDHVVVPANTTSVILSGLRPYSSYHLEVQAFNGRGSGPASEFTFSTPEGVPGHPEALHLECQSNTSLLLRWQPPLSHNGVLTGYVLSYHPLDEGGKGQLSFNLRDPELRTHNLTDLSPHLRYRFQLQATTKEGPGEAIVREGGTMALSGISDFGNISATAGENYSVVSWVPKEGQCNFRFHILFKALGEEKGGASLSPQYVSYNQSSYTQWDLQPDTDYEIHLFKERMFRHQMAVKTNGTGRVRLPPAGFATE

Regarding Neurocan (from UniProt O14594), the Kd is 1 nM.

As usually defined, the Kd is the concentration at which binding is half-saturated.
